Source: article PMC11772769 (2024)
Where no end group is shown, it is not given here. The star is where a group is joined. 5FAM = O=C1OC2(c3ccc(O)cc3Oc3cc(O)ccc32)c2ccc(C(=O)*)cc21

T1: MBP-SNX17 L470G (UniProt Q15036 1-470, L470G)
T1 sequence: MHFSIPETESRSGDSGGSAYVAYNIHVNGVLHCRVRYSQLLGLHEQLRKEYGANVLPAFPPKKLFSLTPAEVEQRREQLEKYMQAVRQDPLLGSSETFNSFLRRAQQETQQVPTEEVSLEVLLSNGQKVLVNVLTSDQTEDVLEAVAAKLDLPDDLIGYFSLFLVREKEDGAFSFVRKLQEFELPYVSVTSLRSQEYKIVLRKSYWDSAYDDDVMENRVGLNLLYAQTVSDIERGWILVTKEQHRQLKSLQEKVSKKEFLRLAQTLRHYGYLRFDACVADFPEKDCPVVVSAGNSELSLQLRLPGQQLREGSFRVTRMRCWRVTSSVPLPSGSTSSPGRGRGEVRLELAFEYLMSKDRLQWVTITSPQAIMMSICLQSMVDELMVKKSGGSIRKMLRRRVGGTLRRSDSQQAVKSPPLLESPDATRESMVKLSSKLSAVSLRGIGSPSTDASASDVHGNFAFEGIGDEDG

T2: MBP-SNX17 (full-length, wild-type) (UniProt Q15036 1-470)
T2 chain: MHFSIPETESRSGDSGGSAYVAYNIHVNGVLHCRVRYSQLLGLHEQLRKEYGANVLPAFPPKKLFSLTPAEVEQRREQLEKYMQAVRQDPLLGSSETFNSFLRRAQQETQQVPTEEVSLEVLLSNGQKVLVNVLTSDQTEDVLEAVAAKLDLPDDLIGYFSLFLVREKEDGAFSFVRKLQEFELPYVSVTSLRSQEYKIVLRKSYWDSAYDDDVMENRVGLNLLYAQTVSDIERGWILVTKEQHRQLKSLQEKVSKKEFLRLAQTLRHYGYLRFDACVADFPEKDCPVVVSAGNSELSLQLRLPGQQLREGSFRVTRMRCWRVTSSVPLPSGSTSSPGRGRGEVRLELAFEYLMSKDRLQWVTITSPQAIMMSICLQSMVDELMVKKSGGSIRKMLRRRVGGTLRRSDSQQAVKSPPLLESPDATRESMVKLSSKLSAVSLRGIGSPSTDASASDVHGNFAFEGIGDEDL

T3: MBP-SNX17 D467X (UniProt Q15036 1-466)
T3 chain: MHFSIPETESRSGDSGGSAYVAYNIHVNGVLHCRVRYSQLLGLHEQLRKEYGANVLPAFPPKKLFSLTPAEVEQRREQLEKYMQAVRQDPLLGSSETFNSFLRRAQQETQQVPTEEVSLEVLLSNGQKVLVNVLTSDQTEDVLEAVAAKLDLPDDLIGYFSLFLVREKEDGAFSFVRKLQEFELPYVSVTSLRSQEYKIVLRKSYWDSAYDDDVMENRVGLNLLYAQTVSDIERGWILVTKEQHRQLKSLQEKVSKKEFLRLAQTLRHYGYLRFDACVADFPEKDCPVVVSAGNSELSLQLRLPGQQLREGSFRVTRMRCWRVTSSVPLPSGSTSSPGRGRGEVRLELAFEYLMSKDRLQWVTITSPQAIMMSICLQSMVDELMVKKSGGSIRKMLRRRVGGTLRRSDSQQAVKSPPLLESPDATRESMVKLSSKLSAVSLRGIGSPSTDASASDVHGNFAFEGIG


What was measured:
Experiment in all cases: FP
[1] = target: T1, MBP-SNX17 L470G
[2] = target: T2, MBP-SNX17 (full-length, wild-type)
[3] = target: T3, MBP-SNX17 D467X

Binder | Kd [1] [nM] | Kd [2] [nM] | Kd [3] [nM]
5FAM-MNVEIGNPTYKMYE [Peptide LRP1_(14mer)] | 2800 | 3000 | 8500
5FAM-KLITYDNPAYEGID [Peptide L2_(14mer)] | 1100 | 1100 | 3200
